According to US20030216345A1:

Biological target: acetylated α-tubulin
Experiment: cell-based or functional assay

- decrease in degree of acetylation of α-tubulin (Western blot of HeLa cells overexpressing HDAC6): 50%
Substance: histone deacetylase 6 (HDAC6), full-length, His6 fused at N-terminal (from UniProt Q9UBN7 1-1215)
